Target: acetylcholine receptor
Test: SPR, AchR immobilised on chip, peptide 10 uM

Binding affinity (RU) | Binder
148 RU | KKWFQR [6mer-1-221]
139 RU | KRVIYK [6mer-1-228]
142 RU | RRQITR [6mer-1-203]
136 RU | KKWYLR [6mer-1-243]
128 RU | KKWQSR [6mer-1-233]
137 RU | RKSRYK [6mer-1-237]
12 RU | RYMVK [5mer-848]
154 RU | KKGQQK [6mer-1-238]
128 RU | RRWITR [6mer-1-226]
127 RU | KRRVRK [6mer-1-213]
153 RU | RRRLLR [6mer-1-229]
151 RU | RKLISR [6mer-1-236]
122 RU | RRLVSR [6mer-1-246]
142 RU | RKLICK [6mer-1-1225]
148 RU | KKRYCR [6mer-1-235]
142 RU | RRVICR [6mer-1-250]
135 RU | KRVLQR [6mer-1-217]
123 RU | KKQLLR [6mer-1-211]
148 RU | RRSRRR [6mer-1-240]

Binding affinity (RU) | Binder
148 RU | KRQYLK [6mer-1-242]
154 RU | RRQLTK [6mer-1-202]
126 RU | KKQVTR [6mer-1-218]
121 RU | RRLFCR [6mer-1-219]
142 RU | RRGISR [6mer-1-234]
122 RU | KKVRQK [6mer-1-247]
131 RU | RRWIRR [6mer-1-252]
151 RU | RRLIYK [6mer-1-248]
136 RU | KRQRTK [6mer-1-231]
121 RU | RKGYTR [6mer-1-209]
133 RU | RKVQSK [6mer-1-251]
139 RU | RRSYCK [6mer-1-214]
122 RU | KRSIQR [6mer-1-208]
146 RU | RRRICK [6mer-1-232]
142 RU | RRGFRR [6mer-1-245]
133 RU | KKRRRK [6mer-1-223]
148 RU | RRLYYK [6mer-1-241]
144 RU | RRRVQK [6mer-1-244]
148 RU | RKSIQR [6mer-1-216]

Binding affinity (RU) | Binder
145 RU | RRVQLK [6mer-1-253]
125 RU | KRVRTK [6mer-1-256]
133 RU | KRWRLR [6mer-1-205]
154 RU | KKRQRR [6mer-1-204]
139 RU | KRLVQK [6mer-1-227]
128 RU | RKGYCK [6mer-1-230]
142 RU | KRGFLR [6mer-1-224]
148 RU | KRQRQK [6mer-1-220]
151 RU | KKSQQR [6mer-1-207]
145 RU | RRRVRR [6mer-1-222]
142 RU | RKGVSR [6mer-1-249]
137 RU | RKSLSK [6mer-1-254]
139 RU | KKGFQK [6mer-1-255]
148 RU | RRRICR [6mer-1-212]
121 RU | RRLQTR [6mer-1-206]
136 RU | RKVLCR [6mer-1-239]
24 RU | RDWFR [5mer-1148]
136 RU | RKRYSR [6mer-1-215]

Source: patent publication US20250011363A1, “OPTIMIZED SHORTENED PEPTIDE THAT BINDS TO ACETYLCHOLINE RECEPTOR, AND USE THEREOF” (SKINMED CO., LTD., priority 2021, published 2025)
